Target: human CD47 expressed on cells (CD47 expressing CHO cells, Jurkat, HL60, DLD1, Raji) (human) (UniProt Q08722)
Test: flow cytometry on human red blood cells, donor 2, MFI; EC50 (nM) table beside the legend; control whose curve stays low

EC50: 0.08 nM
Substance: IgG (antibody)

Source: US20200247886A1
